This note sets out measurements from paper PMC5923235.

What is called koff is the rate constant with which the complex falls apart. A high value points to fast dissociation. What is called stoichiometry N is a count of units in the complex or per binding partner.

The target of test [1] is NTS1 A261C^5.52 (TM5) in the Cys-depleted background of rat neurotensin receptor 1 (rat) (UniProt P20789). The test is described as follows: FRET or BRET; ensemble FRET as for the apo samples, with 5 μM agonist neurotensin (+NT); A488- and A555-labelled NTS1 1:1 in brain polar lipid liposomes; room temperature. Background: BRET reads energy transfer from a luciferase to a nearby fluorophore.

Test [2] has the same target. The test is described as follows: FRET or BRET; ensemble FRET; A488- and A555-labelled NTS1 reconstituted together 1:1 in brain polar lipid liposomes; apo; ~1 μM receptor; 50 mM Tris-HCl pH 7.4, 50 mM NaCl, 1 mM EDTA, 10% glycerol; room temperature; Ecor corrected for donor-to-acceptor ratio.
For test [3], the target named is NTS1 L371C^7.55 (TM7) in the Cys-depleted background of rat neurotensin receptor 1 (rat) (UniProt P20789). The test is described as follows: FRET or BRET; ensemble FRET as for the apo samples, with 5 μM agonist neurotensin (+NT); A488- and A555-labelled NTS1 1:1 in brain polar lipid liposomes; room temperature.
Test [4] shares this target. The test is described as follows: FRET or BRET; ensemble FRET; A488- and A555-labelled NTS1 reconstituted together 1:1 in brain polar lipid liposomes; apo; ~1 μM receptor; 50 mM Tris-HCl pH 7.4, 50 mM NaCl, 1 mM EDTA, 10% glycerol; room temperature; Ecor corrected for donor-to-acceptor ratio.
Test [5] deals with NTS1 Y104C^2.41 (TM2) in the Cys-depleted background of rat neurotensin receptor 1 (rat) (UniProt P20789). The test is described as follows: FRET or BRET; ensemble FRET as for the apo samples, with 5 μM agonist neurotensin (+NT); A488- and A555-labelled NTS1 1:1 in brain polar lipid liposomes; room temperature.
Test [6] has the same target. The test is described as follows: FRET or BRET; ensemble FRET; A488- and A555-labelled NTS1 reconstituted together 1:1 in brain polar lipid liposomes; apo; ~1 μM receptor; 50 mM Tris-HCl pH 7.4, 50 mM NaCl, 1 mM EDTA, 10% glycerol; room temperature; Ecor corrected for donor-to-acceptor ratio.
The target of test [7] is NTS1 V307C^6.34 (TM6) in the Cys-depleted background of rat neurotensin receptor 1 (rat) (UniProt P20789). The test is described as follows: FRET or BRET; ensemble FRET as for the apo samples, with 5 μM agonist neurotensin (+NT); A488- and A555-labelled NTS1 1:1 in brain polar lipid liposomes; room temperature.
Test [8] has the same target. The test is described as follows: FRET or BRET; ensemble FRET; A488- and A555-labelled NTS1 reconstituted together 1:1 in brain polar lipid liposomes; apo; ~1 μM receptor; 50 mM Tris-HCl pH 7.4, 50 mM NaCl, 1 mM EDTA, 10% glycerol; room temperature; Ecor corrected for donor-to-acceptor ratio.
Test [9] concerns the target NTS1 Q378C^8.52 (H8) in the Cys-depleted background of rat neurotensin receptor 1 (rat) (UniProt P20789). The test is described as follows: FRET or BRET; ensemble FRET as for the apo samples, with 5 μM agonist neurotensin (+NT); A488- and A555-labelled NTS1 1:1 in brain polar lipid liposomes; room temperature.
For test [10] the target is unchanged. The test is described as follows: FRET or BRET; ensemble FRET; A488- and A555-labelled NTS1 reconstituted together 1:1 in brain polar lipid liposomes; apo; ~1 μM receptor; 50 mM Tris-HCl pH 7.4, 50 mM NaCl, 1 mM EDTA, 10% glycerol; room temperature; Ecor corrected for donor-to-acceptor ratio.
Test [11] deals with NTS1 A90C^1.58 (TM1) in the Cys-depleted background of rat neurotensin receptor 1 (rat) (UniProt P20789). The test is described as follows: FRET or BRET; ensemble FRET as for the apo samples, with 5 μM agonist neurotensin (+NT); A488- and A555-labelled NTS1 1:1 in brain polar lipid liposomes; room temperature.
Test [12] has the same target. The test is described as follows: FRET or BRET; ensemble FRET; A488- and A555-labelled NTS1 reconstituted together 1:1 in brain polar lipid liposomes; apo; ~1 μM receptor; 50 mM Tris-HCl pH 7.4, 50 mM NaCl, 1 mM EDTA, 10% glycerol; room temperature; Ecor corrected for donor-to-acceptor ratio.
For test [13], the target named is NTS1 T186C^4.42 (TM4) in the Cys-depleted background of rat neurotensin receptor 1 (rat) (UniProt P20789). The test is described as follows: FRET or BRET; single-molecule FRET by TIRF microscopy; Cy3- and Cy5-labelled NTS1 T186C in DPhPC droplet interface bilayers, 100:405:45 Cy3:Cy5:unlabelled, receptor density 0.43 μm^-2; 50 mM NaCl, 1 mM EDTA, 50 mM Tris-HCl pH 7.4; 30 ms frames; constants are of dimer to monomers in two dimensions.

The target is the same in test [14]. The test is described as follows: FRET or BRET; ensemble FRET as for the apo samples, with 5 μM agonist neurotensin (+NT); A488- and A555-labelled NTS1 1:1 in brain polar lipid liposomes; room temperature.
Test [15] shares this target. The test is described as follows: FRET or BRET; ensemble FRET; A488- and A555-labelled NTS1 reconstituted together 1:1 in brain polar lipid liposomes; apo; ~1 μM receptor; 50 mM Tris-HCl pH 7.4, 50 mM NaCl, 1 mM EDTA, 10% glycerol; room temperature; Ecor corrected for donor-to-acceptor ratio.
Test [16] has as its target NTS1 S(C)172C^3.55 (TM3, re-introduced native Cys) in the Cys-depleted background of rat neurotensin receptor 1 (rat) (UniProt P20789). The test is described as follows: FRET or BRET; ensemble FRET as for the apo samples, with 5 μM agonist neurotensin (+NT); A488- and A555-labelled NTS1 1:1 in brain polar lipid liposomes; room temperature.
For test [17] the target is unchanged. The test is described as follows: FRET or BRET; ensemble FRET; A488- and A555-labelled NTS1 reconstituted together 1:1 in brain polar lipid liposomes; apo; ~1 μM receptor; 50 mM Tris-HCl pH 7.4, 50 mM NaCl, 1 mM EDTA, 10% glycerol; room temperature; Ecor corrected for donor-to-acceptor ratio.

In [1], “NTS1 A261C^5.52 (TM5) in the Cys-depleted background of rat neurotensin receptor 1 (from UniProt P20789 43-424)” returned an Ecor(+NT) of 1.05. Further, in test [2], the Ecor(apo) stood at 0.98.
“NTS1 L371C^7.55 (TM7) in the Cys-depleted background of rat neurotensin receptor 1 (from UniProt P20789 43-424)” came in with an Ecor(+NT) in test [3] of 0.7. Further, the Ecor(apo) in test [4] turned out to be 0.68.
Substance “NTS1 Y104C^2.41 (TM2) in the Cys-depleted background of rat neurotensin receptor 1 (from UniProt P20789 43-424)” yielded an Ecor(+NT) in test [5] of 0.9. In addition, the Ecor(apo) in test [6] came out at 0.9.
In test [7], “NTS1 V307C^6.34 (TM6) in the Cys-depleted background of rat neurotensin receptor 1 (from UniProt P20789 43-424)” gave an Ecor(+NT) of 0.82. Moreover, the Ecor(apo) in test [8] worked out at 0.99.
In [9], “NTS1 Q378C^8.52 (H8) in the Cys-depleted background of rat neurotensin receptor 1 (from UniProt P20789 43-424)” registered an Ecor(+NT) of 0.89. Further, the Ecor(apo) in test [10] is 0.89.
On to “NTS1 A90C^1.58 (TM1) in the Cys-depleted background of rat neurotensin receptor 1 (from UniProt P20789 43-424)”, for which, in test [11], the Ecor(+NT) is 0.77. In addition, the Ecor(apo) in test [12] is 0.73.
For “NTS1 T186C^4.42 (TM4) in the Cys-depleted background of rat neurotensin receptor 1 (from UniProt P20789 43-424)”, in test [13], the dimer half-life t1/2 was 1.2 s, the koff amounted to 0.58 s⁻¹, the percent of receptors as dimers at 0.43 molecules per μm^2 was 9.8% and the stoichiometry N was determined as 2. In test [14], this substance displayed an Ecor(+NT) of 0.78. In test [15], the Ecor(apo) was found to be 0.77.
“NTS1 S(C)172C^3.55 (TM3, re-introduced native Cys) in the Cys-depleted background of rat neurotensin receptor 1 (from UniProt P20789 43-424)”: in test [16], the Ecor(+NT) stood at 1.02. In addition, the Ecor(apo) in test [17] came to 1.03.
